Test results as given in patent publication US20260097105A1, “SYSTEMS, FORMULATIONS AND METHODS FOR GENERATING UNIVERSAL PEPTIDE/MHC COMPLEXES WITH ENGINEERED DISULFIDE CONNECTING THE HEAVY AND LIGHT CHAINS” (priority 2022, published 2026).

What was measured:
[1] = molecular target: open HLA-A*24:02 (G120C)/β2m (H31C)/… (human); assay: fluorescence polarization, peptide exchange, 200 nM pMHC
[2] = molecular target: WT HLA-A*29:02/β2m/[…] (human); assay: competition; settings: chains peptide; modification not given

Binder	fold of peptide exchange kinetics (Kassoc.) against WT HLA-A*24:02 [1]	IC50 [2]
KYNPIRTTF (modifications not checked)	6 fold	
ALIDVFHQY		49 nM
